*1 amine or outer side, *2 acyl side, *3 side chain or, on linkers, in order; H or OH if unused. Where a SMILES comes first, the peptide text is derived from it. The star is where a group is joined. pNA = O=[N+]([O-])c1ccc(N*)cc1; Suc = O=C(CCC(=O)[*:2])[*:1]
What was measured:
[1] = biological target: T1, B. amyloliquefaciens subtilisin variant G152 (Ala152 to Gly) (Bacillus amyloliquefaciens, UniProt P00782, A259G); assay: Kinetics of p-nitroanilide substrate hydrolysis, G152; format: biochemical; settings: Table XII, Gly (G) at position 152; synthetic p-nitroanilide substrate with label as P-1 amino acid
T1 construct: made in house
T1 sequence (P00782 108-382 A259G): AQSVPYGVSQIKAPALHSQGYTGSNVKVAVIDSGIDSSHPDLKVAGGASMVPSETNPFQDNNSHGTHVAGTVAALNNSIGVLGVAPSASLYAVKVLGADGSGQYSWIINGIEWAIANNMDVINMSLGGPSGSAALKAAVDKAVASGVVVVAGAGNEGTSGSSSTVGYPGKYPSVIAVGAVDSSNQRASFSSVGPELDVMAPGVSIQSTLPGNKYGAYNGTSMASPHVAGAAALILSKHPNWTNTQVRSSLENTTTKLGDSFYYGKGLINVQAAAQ
Source text: (§1) Wild-type subtilisin was purified from B. subtilis culture supernatants expressing the B. amyloliquefaciens subtilisin gene (Wells, J.A., et al. (1983) Nucleic Acids Res. 11, 7911-7925) as previously described (Estell, D.A., et al. (1985) J. Biol. Chem. 260, 6518-6521). Details of the synthesis of tetrapeptide substrates having the form succinyl-L-AlaL-AlaL-ProL-[X]-p-nitroanilide (where X is the P1 amino acid) are described by DelMar, E.G., et al. (1979) Anal. Biochem. 99, 316-320. Kinetic parameters, Km(M) and kcat-(s-^1) were measured using a modified progress curve analysis (Estell, D.A., et al. (1985) J. Biol. Chem. 260, 6518-6521). Briefly, plots of rate versus product concentration were fit to the differential form of the rate equation using a non-linear regression algorithm. Errors in kcat and Km for all values reported are less than five percent. The various substrates in Table VIII are ranged in order of decreasing hydrophobicity. Nozaki, Y. (1971), J. Biol. Chem. 246, 2211-2217; Tanford C. (1978) Science 200, 1012).
(§2) The wild type DNA sequence was mutated by the V152/P153 primer (Figure 20, line 4) using the above restriction-purification approach for the new Kpnl site. Other mutant primers (shaded sequences Figure 20; S152, line 5 and G152, line 6) mutated the new Kpnl site away and such mutants were isolated using the restriction-selection procedure as described above for loss of the Kpnl site.
(§3) The results of these substitutions for the above synthetic substrates containing the P-1 amino acids Phe, Leu and Ala are shown in Table XII.

[2] = biological target: T2, B. amyloliquefaciens subtilisin variant S152 (Ala152 to Ser) (Bacillus amyloliquefaciens, UniProt P00782, A259S); assay: Kinetics of p-nitroanilide substrate hydrolysis, S152; format: biochemical; settings: Table XII, Ser (S) at position 152; synthetic p-nitroanilide substrate with label as P-1 amino acid
T2 construct: at various amino acid residues within the mature form of the subtilisin molecule; made in house
T2 sequence (P00782 108-382 A259S): as the sequence (P00782 108-382 A259G) above, with G152S counted along it
Source text: as §1, §2, §3

[3] = biological target: T3, B. amyloliquefaciens subtilisin, wild type (WT, Gly166) (Bacillus amyloliquefaciens, UniProt P00782); assay: Kinetics of hydrolysis of succinyl-Ala-Ala-Pro-X-p-nitroanilide substrates (progress curve analysis); format: biochemical; settings: for kcat/Kmx10^-4: Table XII, Ala (wild type) at position 152, synthetic p-nitroanilide substrate with label as P-1 amino acid
T3 construct: at various amino acid residues within the mature form of the subtilisin molecule; made in house; host or cells: Bacillus subtilis (secreted, culture supernatant)
T3 sequence (P00782 108-382): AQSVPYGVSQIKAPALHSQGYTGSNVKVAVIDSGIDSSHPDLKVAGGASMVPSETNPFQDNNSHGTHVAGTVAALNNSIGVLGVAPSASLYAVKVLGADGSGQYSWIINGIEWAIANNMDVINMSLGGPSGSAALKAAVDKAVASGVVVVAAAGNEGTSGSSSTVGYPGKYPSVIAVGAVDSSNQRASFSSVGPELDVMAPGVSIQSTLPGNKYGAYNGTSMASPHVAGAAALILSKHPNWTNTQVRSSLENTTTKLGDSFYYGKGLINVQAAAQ
Source text: A change in substrate specificity is defined as a difference between the kcat/Km ratio of the precursor carbonyl hydrolase and that of the hydrolase mutant. The kcat/Km ratio is a measure of catalytic efficienty. Carbonyl hydrolase mutants with increased or diminished kcat/Km ratios are described in the examples. Generally, the objective will be to secure a mutant having a greater (numerically large) kcat/Km ratio for a given substrate, thereby enabling the use of the enzyme to more efficiently act on a target substrate. A substantial change in kcat/Km ratio is preferably at least 2-fold increase or decrease. However, smaller increases or decreases in the ratio (e.g., at least 1.5-fold) are also considered substantial. An increase in kcat/Km ratio for one substrate may be accompanied by a reduction in kcat/Km ratio for another substrate. […] Km and kcat are measured in accord with known procedures, as described in EPO Publication No. 0130756 or as described herein.
as §1

[4] = substrate: C[C@H](NC(=O)CCC(=O)O)C(=O)N[C@@H](C)C(=O)N1CCC[C@H]1C(=O)N[C@@H](Cc1ccccc1)C(=O)Nc1ccc([N+](=O)[O-])cc1; assay: Kinetics of p-nitroanilide substrate hydrolysis, L217; format: biochemical, B. amyloliquefaciens; settings: other: substrate sAAPFpNa; Km in M
Source text: as §1
Tyr217 has been substituted by all other 19 amino acids. Cassette mutagenesis as described in EPO publication No. 0130756 was used according to the protocol of Figure 22. The EcoRV restriction site was used for restriction-purification of pA217.
Since this position is involved in substrate binding, mutations here effect kinetic parameters of the enzyme. […]

[5] = substrate: C[C@H](NC(=O)CCC(=O)O)C(=O)N[C@@H](C)C(=O)N1CCC[C@H]1C(=O)N[C@@H](Cc1ccccc1)C(=O)Nc1ccc([N+](=O)[O-])cc1; assay: Kinetics of p-nitroanilide substrate hydrolysis, deletion mutant; format: biochemical, B. amyloliquefaciens; settings: other: Table V; substrate not given; Km in M
Source text: The effect of deletion of residues 161 through 164 has been shown by comparing the activity of the wild type (WT) enzyme with a mutant enzyme containing this deletion as well as multiple substitutions (i.e., S153/S156/A158/G159/S160/0161-164/1165/S166/A169/R170). This produced the following results:
as §1

[6] = substrate: C[C@H](NC(=O)[C@H](Cc1ccccc1)NC(=O)CCC(=O)O)C(=O)N1CCC[C@H]1C(=O)N[C@@H](Cc1ccccc1)C(=O)Nc1ccc([N+](=O)[O-])cc1; assay: Kinetics of p-nitroanilide substrate hydrolysis, H104; format: biochemical, B. amyloliquefaciens; settings: other: Table XI
Source text: as §1
(§4) Tyr104 has been substituted with Ala, His, Leu, Met and Ser. The method used was a modification of the site directed mutagenesis method. According to the protocol of Figure 19, a primer (shaded in line 4) introduced a unique Hindlll site and a frame shift mutation at codon 104. Restriction-purification for the unique Hindlll site facilitated the isolation of the mutant sequence. Restriction-selection against this Hindlll site using pimers in line 5 was used to obtain position 104 mutants.
(§5) The substrates in Table XI were used to analyze the substrate specificity of these mutants.

[7] = substrate: C[C@H](NC(=O)[C@@H]1CCCN1C(=O)[C@H](C)NC(=O)[C@H](Cc1ccccc1)NC(=O)CCC(=O)O)C(=O)Nc1ccc([N+](=O)[O-])cc1; assay: as above; format: biochemical, B. amyloliquefaciens; settings: other: Table XI
Source text: as §1, §4, §5

[8] = substrate: C[C@H](NC(=O)CCC(=O)O)C(=O)N[C@@H](C)C(=O)N1CCC[C@H]1C(=O)N[C@@H](Cc1ccccc1)C(=O)Nc1ccc([N+](=O)[O-])cc1; assay: as above; format: biochemical, B. amyloliquefaciens; settings: other: Table XI
Source text: as §1, §4, §5

[9] = substrate: C[C@H](NC(=O)CCC(=O)O)C(=O)N[C@@H](C)C(=O)N1CCC[C@H]1C(=O)N[C@@H](C)C(=O)Nc1ccc([N+](=O)[O-])cc1; assay: as above; format: biochemical, B. amyloliquefaciens; settings: other: Table XI
Source text: as §1, §4, §5

[10] = substrate: C[C@H](NC(=O)CCC(=O)O)C(=O)N[C@@H](C)C(=O)N1CCC[C@H]1C(=O)N[C@@H](Cc1ccccc1)C(=O)Nc1ccc([N+](=O)[O-])cc1; assay: Kinetics of p-nitroanilide substrate hydrolysis, A222; format: biochemical, B. amyloliquefaciens; settings: other: Table XIX
Source text: as §1
Although mutations at position 222 improve oxidation stability they also tend to increase the Km. In this case the A222 mutation was combined with the K166 mutation to give an enzyme with kcat and Km intermediate between the two parent enzymes.

[11] = substrate: C[C@H](NC(=O)CCC(=O)O)C(=O)N[C@@H](C)C(=O)N1CCC[C@H]1C(=O)N[C@@H](Cc1ccccc1)C(=O)Nc1ccc([N+](=O)[O-])cc1; assay: Kinetics of p-nitroanilide substrate hydrolysis, K166/A222; format: biochemical, B. amyloliquefaciens; settings: other: Table XIX
Source text: as §1, with “1012). […]” for “1012).”

[12] = Table VIII, substrate succinyl-L-AlaL-AlaL-ProL-[X]-p-nitroanilide, X = label (P1 amino acid)

Molecule: CC(C)C[C@H](NC(=O)[C@@H]1CCCN1C(=O)[C@H](C)NC(=O)[C@H](C)NC(=O)CCC(=O)O)C(=O)Nc1ccc([N+](=O)[O-])cc1 [Leu] (Suc-AAPL-pNA)
- kcat/Kmx10^-4 [1]: 0.4
- kcat/Kmx10^-4 [2]: 0.5
- kcat/Kmx10^-4 [3]: 10.0

Molecule: C[C@H](NC(=O)CCC(=O)O)C(=O)N[C@@H](C)C(=O)N1CCC[C@H]1C(=O)N[C@@H](Cc1ccccc1)C(=O)Nc1ccc([N+](=O)[O-])cc1 [Phe] (Suc-AAPF-pNA)
- kcat/Kmx10^-4 [1]: 0.2
- kcat/Kmx10^-4 [2]: 1.0
- kcat [3, 12]: 50 S^-1
- kcat/Kmx10^-4 [3]: 40.0
- kcat ([3]; Table XIII, Glu156/Gly166 (WT), synthetic substrate with label as P-1 residue): 50.00 s-^1

Molecule: C[C@H](NC(=O)CCC(=O)O)C(=O)N[C@@H](C)C(=O)N1CCC[C@H]1C(=O)N[C@@H](C)C(=O)Nc1ccc([N+](=O)[O-])cc1 [Ala] (Suc-AAPA-pNA)
- kcat/Kmx10^-4 [1]: <0.04
- kcat/Kmx10^-4 [2]: 0.2
- kcat/Kmx10^-4 [3]: 1.0

Molecule: C[C@H](NC(=O)CCC(=O)O)C(=O)N[C@@H](C)C(=O)N1CCC[C@H]1C(=O)N[C@@H](CCC(=O)O)C(=O)Nc1ccc([N+](=O)[O-])cc1 [Glu] (Suc-AAPE-pNA)
- kcat [3, 12]: 0.54 S^-1

B1: B. amyloliquefaciens subtilisin variant L217 (Tyr217 to Leu) (Bacillus amyloliquefaciens; Y324L) (protein)
chain: AQSVPYGVSQIKAPALHSQGYTGSNVKVAVIDSGIDSSHPDLKVAGGASMVPSETNPFQDNNSHGTHVAGTVAALNNSIGVLGVAPSASLYAVKVLGADGSGQYSWIINGIEWAIANNMDVINMSLGGPSGSAALKAAVDKAVASGVVVVAAAGNEGTSGSSSTVGYPGKYPSVIAVGAVDSSNQRASFSSVGPELDVMAPGVSIQSTLPGNKYGALNGTSMASPHVAGAAALILSKHPNWTNTQVRSSLENTTTKLGDSFYYGKGLINVQAAAQ
notes: at various amino acid residues within the mature form of the subtilisin molecule; made in house
- Km [4]: 470 µM

B2: B. amyloliquefaciens subtilisin deletion mutant S153/S156/A158/G159/S160/Δ161-164/I165/S166/A169/R170 (Bacillus amyloliquefaciens; … (protein)
chain: AQSVPYGVSQIKAPALHSQGYTGSNVKVAVIDSGIDSSHPDLKVAGGASMVPSETNPFQDNNSHGTHVAGTVAALNNSIGVLGVAPSASLYAVKVLGADGSGQYSWIINGIEWAIANNMDVINMSLGGPSGSAALKAAVDKAVASGVVVVAASGNSGAGSISYPARYPSVIAVGAVDSSNQRASFSSVGPELDVMAPGVSIQSTLPGNKYGAYNGTSMASPHVAGAAALILSKHPNWTNTQVRSSLENTTTKLGDSFYYGKGLINVQAAAQ
notes: as for B1
- Km [5]: 5 µM

B3: B. amyloliquefaciens subtilisin variant H104 (Tyr104 to His) (Bacillus amyloliquefaciens; Y211H) (protein)
chain: AQSVPYGVSQIKAPALHSQGYTGSNVKVAVIDSGIDSSHPDLKVAGGASMVPSETNPFQDNNSHGTHVAGTVAALNNSIGVLGVAPSASLYAVKVLGADGSGQHSWIINGIEWAIANNMDVINMSLGGPSGSAALKAAVDKAVASGVVVVAAAGNEGTSGSSSTVGYPGKYPSVIAVGAVDSSNQRASFSSVGPELDVMAPGVSIQSTLPGNKYGAYNGTSMASPHVAGAAALILSKHPNWTNTQVRSSLENTTTKLGDSFYYGKGLINVQAAAQ
notes: as for B1
- Km [6]: 410 µM
- kcat [6]: 38.0 s-^1
- kcat/Km [6]: 91000 M⁻¹ s⁻¹
- Km [7]: 150 µM
- kcat [7]: 2.4 s-^1
- kcat/Km [7]: 16000 M⁻¹ s⁻¹
- Km [8]: 710 µM
- kcat [8]: 22.0 s-^1
- kcat/Km [8]: 31000 M⁻¹ s⁻¹
- Km [9]: 1900 µM
- kcat [9]: 2.0 s-^1
- kcat/Km [9]: 1000 M⁻¹ s⁻¹

B4: B. amyloliquefaciens subtilisin variant A222 (Met222 to Ala) (Bacillus amyloliquefaciens; M329A) (protein)
chain: AQSVPYGVSQIKAPALHSQGYTGSNVKVAVIDSGIDSSHPDLKVAGGASMVPSETNPFQDNNSHGTHVAGTVAALNNSIGVLGVAPSASLYAVKVLGADGSGQYSWIINGIEWAIANNMDVINMSLGGPSGSAALKAAVDKAVASGVVVVAAAGNEGTSGSSSTVGYPGKYPSVIAVGAVDSSNQRASFSSVGPELDVMAPGVSIQSTLPGNKYGAYNGTSAASPHVAGAAALILSKHPNWTNTQVRSSLENTTTKLGDSFYYGKGLINVQAAAQ
notes: as for B1
- Km [10]: 990 µM
- kcat [10]: 42 s-^1

B5: B. amyloliquefaciens subtilisin variant K166/A222 (Bacillus amyloliquefaciens; G273K/M329A) (protein)
chain: AQSVPYGVSQIKAPALHSQGYTGSNVKVAVIDSGIDSSHPDLKVAGGASMVPSETNPFQDNNSHGTHVAGTVAALNNSIGVLGVAPSASLYAVKVLGADGSGQYSWIINGIEWAIANNMDVINMSLGGPSGSAALKAAVDKAVASGVVVVAAAGNEGTSGSSSTVKYPGKYPSVIAVGAVDSSNQRASFSSVGPELDVMAPGVSIQSTLPGNKYGAYNGTSAASPHVAGAAALILSKHPNWTNTQVRSSLENTTTKLGDSFYYGKGLINVQAAAQ
notes: as for B1
- Km [11]: 200 µM
- kcat [11]: 29 s-^1
